Sequences and labels used below:
B1: HDV Ribozyme (parent)
chain: GGCCGGCAUGGUCCCAGCCUCCUCGCUGGCGCCGGCUGGGCAACAUUCCGAGGGGACCGUCCCCUCGGUAAUGGCGAAUGGGACCCA

Variants of B1 are the subject of this data set. In words: self-cleavage, relative activity (ratio to wild type); higher = more cleavage; co-transcriptional.
Turning to U27C C66U, the self-cleavage came out at 0.534. For U46C C75A the value was 0.0536; for C36U A56U, 0.845; for G6C A45G, 0.361.

As to C30U A42G, the self-cleavage came out at 0.156. As for C57U G67C, the self-cleavage was 1.11. For A8U U65A, the self-cleavage was determined as 0.617. Then A70U U72A, with 0.415; and G73U G74C, with 0.126. Consider G73U G74U, for which the self-cleavage stood at 0.22. Then C32G A45G, with 0.0811.

In the case of C7U A45G, the self-cleavage amounted to 0.72. Take U20G G73A: the self-cleavage came out at 0.113. For C13G C64G the value was 0.138.

Consider U20G G55U, for which the self-cleavage is 0.332. For C48U G55U the value was 1.11; for C62A G81C, 0.138; for U27A G67A, 1.32. As to G38A A83C, the self-cleavage amounted to 0.151.

Regarding C64A G82C, the self-cleavage was determined as 0.199. For G25C G82C the value was 0.0326; for U46C C84U, 0.485. C44G A83G: the self-cleavage stood at 0.233.

As to G10A C75A, the self-cleavage stood at 0.0898. For the variant C63U G68A, the self-cleavage was found to be 0.973. For C48U A56G the value was 0.989; for G52C G54C, 0.564. Then C7G G38A, with 0.101. Then G31U G67A, with 0.369; and C14A G34C, with 0.151. Consider U20C G38C, for which the self-cleavage was 0.0831. Take C3U C63G: the self-cleavage amounted to 0.572. For C58U A71G the value was 1.08. For C3G G11A the value was 0.144; for G28C C36A, 0.0462. Then C7G U12A, with 0. For the variant G29C C44U, the self-cleavage stood at 0. Consider C22U U60A, for which the self-cleavage is 0.623. Then U9A C15A, with 0.677. Then U27A C41U, with 1.07; and C64G A83C, with 0.373. For U12G U37A the value was 0.0554; for U12G C75A, 0. For G31U G39A, the self-cleavage amounted to 0.0361.

On to C14G C24U, for which the self-cleavage is 0.403. Consider C26G U65C, for which the self-cleavage turned out to be 1.16.

Regarding A45G U79G, the self-cleavage is 0.317. For G17A G54C, the self-cleavage was 0.458. With U27A G34A, the self-cleavage was 0.256. Then A45G A83C, with 0.482; and A43G G67C, with 0.465. For C19U U69C the value was 0.0997; for A16C C48A, 0.987. Consider G35C A45U, for which the self-cleavage is 0.122.

Consider C22U C85G, for which the self-cleavage came out at 0.811. For G40A C86U the value was 0.989; for G39A G53U, 0.504.

For the variant C24G C85G, the self-cleavage worked out at 0.125. For G68A G82U the value was 0.324; for A45C A87C, 0.554; for U37A U72G, 0.302. For A42C G68A the value was 0.253. For C41A A56G the value was 1.15; for G35C C36G, 0.0978; for G17A A43U, 0.237. In the case of C4A A87U, the self-cleavage turned out to be 0.39. For C7U G50U the value was 0.864; for G1C C7A, 0.0405. Consider A16G G40C, for which the self-cleavage is 0.135. Then G10A C49G, with 0.46; and G38A U46C, with 0.138; and G53A C66G, with 0.908. Then G28U C84G, with 0.13. Then C14A C41A, with 0.734; and G67C A77C, with 0.227. On to C32G C41G, for which the self-cleavage is 0.0665. Regarding C33G U37G, the self-cleavage worked out at 0.161. Regarding C18U U69C, the self-cleavage was found to be 0.878. G34C G73U: the self-cleavage worked out at 0.0627. Turning to U47G A51C, the self-cleavage is 1.13.

Regarding G2U G29U, the self-cleavage is 0.0712. Turning to C19U U46C, the self-cleavage is 0.213. As for C26A G55C, the self-cleavage stood at 0.862. Take G1C G11U: the self-cleavage came to 0.115. For A42U U47A the value was 0.302; for G50U C85A, 0.742; for C21U G76A, 0.271.

In the case of C13G A70U, the self-cleavage stood at 0.123.

For C32U, the self-cleavage amounted to 0.881.

As for G5C U46A, the self-cleavage stood at 0.0639. Then G54A C64G, with 0.657. Then G25A G76C, with 0.217; and C15A C86U, with 0.831. For A16G C64U the value was 0.942; for G5U C36A, 0.208; for G11C C66G, 0.383.

Consider A78U C85G, for which the self-cleavage was determined as 0.326. As for A8U U69C, the self-cleavage is 0.646. Consider U23A G31A, for which the self-cleavage was found to be 0.489.

As for G73C C85U, the self-cleavage is 0.415. Regarding C7U U12G, the self-cleavage amounted to 1.02. For G76U A87C, the self-cleavage turned out to be 1.17.

For C33U G81A, the self-cleavage was 0.285.

As for C19A G35A, the self-cleavage is 0.111.

For U46A G76C, the self-cleavage was 0.665. Then C24A A83C, with 0.192. For C22A U37C the value was 0.0723.

On to C4U C21G, for which the self-cleavage came out at 0.

Take G1U G73C: the self-cleavage was found to be 0.231. Then C19G A70C, with 0; and G40C C61U, with 0.192; and C61G A87C, with 0.983. For U60A G80C the value was 0.0354. C7U G76U: the self-cleavage amounted to 0.755.

Consider C3A A87G, for which the self-cleavage came to 0.378. For the variant C14A C86G, the self-cleavage was found to be 0.378.

In the case of A42U C44U, the self-cleavage amounted to 0.674. Then C32A A70G, with 0.285.

Turning to A8G C86U, the self-cleavage came to 1.11. As for G28A U69C, the self-cleavage came to 0.0361. For G25U U69A the value was 0.196; for U60A A71G, 1.12. Then G38C C64U, with 0.369. For U72G U79A, the self-cleavage was 0.534.

U46C C57G: the self-cleavage came out at 1.04. For G1A C85A the value was 0.0852; for A42C A51G, 0.26; for A16U U65C, 0.965.

A16U U65A: the self-cleavage amounted to 0.831.

On to A8U C22A, for which the self-cleavage was found to be 0.0923. As to C84G A87G, the self-cleavage was found to be 0.282. Then C30U G39A, with 0.273.

For the variant G52U G82C, the self-cleavage was found to be 0.194. Then G67A A71C, with 0.752.

In the case of G5U U20C, the self-cleavage stood at 0. For C22A G81A the value was 0.205. For G11A G38U the value was 0.

With G40A G59A, the self-cleavage amounted to 0.87. Then A51G G76A, with 0.91; and U37C C86G, with 0.956.

In the case of G29U C48U, the self-cleavage is 0.0959. For the variant A71U C85G, the self-cleavage came to 0.587.

C41U G82U: the self-cleavage was determined as 0.261. Turning to C15A U23G, the self-cleavage was 0.185. In the case of A51U G59C, the self-cleavage was found to be 0.755. C4G C61A: the self-cleavage is 0.35. Then C44A U69G, with 0.609; and C57U C75G, with 0.0369. For C62A C84U, the self-cleavage turned out to be 0.618. Then A42U G67U, with 0.346; and C64U G80C, with 0.158. Then G35C G80C, with 0.0992; and U46A C48A, with 0.665. G6A U69A: the self-cleavage came out at 0.525.

With G29U G34C, the self-cleavage turned out to be 0.146. For A16U C22U the value was 0.612; for A56C U79C, 0.379; for U23G G25U, 0.0594. Then C41A C62G, with 0.324. Take G52A C84A: the self-cleavage amounted to 0.736. Then A8C A42U, with 0.133; and G53A A56C, with 0.787; and C13G C18G, with 0.138. Turning to C63G C84G, the self-cleavage is 0.306. Then G52U G67C, with 0.295; and G39C G59A, with 0.23.

With C18U G80U, the self-cleavage worked out at 0.0989.
